Legend:
[1] = target: T1, HIV-1 reverse transcriptase (HIV-RT) (HIV-1, UniProt P04585;P04585 P04585:588-1147,P04585:588-1027); assay: filter; no 3' helix
Protocol: (§1) Affinity assays with labeled RNA and HIV-RT. Model RNAs for refinement of the 5' and 3' boundaries and for determination of the effect of substitutions were labeled during transcription with T7 RNA polymerase as described in Tuerk et al. (1990) except that a-^32P-ATP was used, in reactions of 0.5 mM C,G, and UTP with 0.05 mM ATP. Synthetic oligonucleotides and phosphatased transcripts (as in Tuerk et al., 1990) were kinased as described in Gauss et al. (1987). All RNA-protein binding reactions were done in a "binding buffer" of 200 mM KOAc, 50 mM Tris-HCl pH 7.7, 10 mM dithiothreitol with exceptions noted for chemical protection experiments below. RNA and protein dilutions were mixed and stored on ice for 30 minutes then transferred to 37° C. for 5 minutes. In binding assays the reaction volume was 60 μl of which 50 μl was assayed. Each reaction was suctioned through a pre-wet (with binding buffer) nitrocellulose filter and rinsed with 3 mls of binding buffer after which it was dried and counted for assays or subjected to elution and assayed for chemical modification. In comparisons of binding affinity, results were plotted and the protein concentration at which half-maximal binding occurred (the approximate Kd in conditions of protein excess) was determined graphically.

[2] = target: T1, HIV-1 reverse transcriptase (HIV-RT); assay: filter; binding reduced to that of non-specific sequences
Protocol: as §1

[3] = target: T1, HIV-1 reverse transcriptase (HIV-RT); assay: filter; specific binding abolished
Protocol: as §1

[4] = target: T1, HIV-1 reverse transcriptase (HIV-RT); assay: filter; no effect on binding
Protocol: as §1

[5] = target: T1, HIV-1 reverse transcriptase (HIV-RT); assay: filter; binds with high affinity
Protocol: as §1

[6] = target: T1, HIV-1 reverse transcriptase (HIV-RT); assay: filter
Protocol: as §1

[7] = target: T1, HIV-1 reverse transcriptase (HIV-RT); assay: filter; no difference in affinity
Protocol: as §1

[8] = target: T1, HIV-1 reverse transcriptase (HIV-RT); assay: filter; section II states 5-fold decrease on removal of both Us
Protocol: as §1

[9] = target: T1, HIV-1 reverse transcriptase (HIV-RT); assay: filter; affinity unchanged versus transcripts with two extra 5' Gs
Protocol: as §1

[10] = target: T1, HIV-1 reverse transcriptase (HIV-RT); assay: filter; little difference in affinity
Protocol: as §1

B1: ligand B 3' truncation U21-U26 (no Stem 2) (ssRNA)
RNA: GGUCCGAAGUGCAACGGGAAAA
[1]
  binding signal: ~70 fold lower affinity

B2: HIV-RT ligand D of FIG. 2 (5' U and next C removed) (ssRNA)
RNA: GGCGAAGUGCAACGGGAAAAUGCACU
[2]
  binding result: no binding

B3: ligand B G16A (ssRNA)
RNA: GGUCCGAAGUGCAACGGAAAAAUGCACU
[3]
  binding result: no binding

B4: ligand B G4-C13 to C-G (ssRNA)
RNA: GGUCCCAAGUGCAAGGGGAAAAUGCACU
[4]
  binding signal: 1 fold vs ligand B

B5: ligand B with 2'-methoxy Stem 2 (FIG. 7 C) (ssRNA)
RNA: UCCGAAGUGCAACGGGAAAAUGCACU
modifications: 2'-OMe at the 12 riboses of Stem 2 (A6-A11, U21-U26)
[5]
  binding result: binds

B6: ligand B C3-G14 to G-C (ssRNA)
RNA: GGUCGGAAGUGCAACCGGAAAAUGCACU
[6]
  binding signal: ~10 fold lower affinity

B7: ligand B G4-C13 to A-C (ssRNA)
RNA: GGUCCAAAGUGCAACGGGAAAAUGCACU
[3]
  binding signal: ≥ 100 fold lower affinity

B8: ligand B 3' truncation A24-U26 (ssRNA)
RNA: GGUCCGAAGUGCAACGGGAAAAUGC
[7]
  binding signal: 1 fold vs ligand B

B9: HIV-RT ligand C of FIG. 2 (no 5' U) (ssRNA)
RNA: GGCCGAAGUGCAACGGGAAAAUGCACU
modifications: [none]
[8]
  binding signal: ~20 fold lower affinity

B10: synthetic ligand B with 5'-terminal U1 (ssRNA)
RNA: UCCGAAGUGCAACGGGAAAAUGCACU
[9]
  binding result: binds

B11: ligand B U1A (ssRNA)
RNA: GGACCGAAGUGCAACGGGAAAAUGCACU
[10]
  binding result: binds

B12: ligand B 3' truncation G22-U26 (ssRNA)
RNA: GGUCCGAAGUGCAACGGGAAAAU
[6]
  binding signal: ~12 fold lower affinity

B13: ligand B G4-C13 to A-U (ssRNA)
RNA: GGUCCAAAGUGCAAUGGGAAAAUGCACU
[6]
  binding signal: ~20 fold lower affinity

B14: ligand B C2-G15 to G-C (ssRNA)
RNA: GGUGCGAAGUGCAACGCGAAAAUGCACU
[6]
  binding result: no binding

B15: ligand B 3' truncation C23-U26 (ssRNA)
RNA: GGUCCGAAGUGCAACGGGAAAAUG
[6]
  binding signal: 7 fold lower affinity

B16: ligand B U1C (ssRNA)
RNA: GGCCCGAAGUGCAACGGGAAAAUGCACU
[6]
  binding signal: ~20 fold lower affinity

Source: patent publication US5817785, “Methods of producing nucleic acid ligands” (NeXstar Pharmaceuticals, Inc.)
